# B1: DBF2 kinase activator protein MOB1 (Saccharomyces cerevisiae), P40484 (parent)
# chain: MSFLQNFHISPGQTIRSTRGFKWNTANAANNAGSVSPTKATPHNNTINGNNNNANTINNRADFTNNPVNGYNESDHGRMSPVLTTPKRHAPPPEQLQNVTDFNYTPSHQKPFLQPQAGTTVTTHQDIKQIVEMTLGSEGVLNQAVKLPRGEDENEWLAVHCVDFYNQINMLYGSITEFCSPQTCPRMIATNEYEYLWAFQKGQPPVSVSAPKYVECLMRWCQDQFDDESLFPSKVTGTFPEGFIQRVIQPILRRLFRVYAHIYCHHFNEILELNLQTVLNTSFRHFCLFAQEFELLRPADFGPLLELVMELRDR
# partner: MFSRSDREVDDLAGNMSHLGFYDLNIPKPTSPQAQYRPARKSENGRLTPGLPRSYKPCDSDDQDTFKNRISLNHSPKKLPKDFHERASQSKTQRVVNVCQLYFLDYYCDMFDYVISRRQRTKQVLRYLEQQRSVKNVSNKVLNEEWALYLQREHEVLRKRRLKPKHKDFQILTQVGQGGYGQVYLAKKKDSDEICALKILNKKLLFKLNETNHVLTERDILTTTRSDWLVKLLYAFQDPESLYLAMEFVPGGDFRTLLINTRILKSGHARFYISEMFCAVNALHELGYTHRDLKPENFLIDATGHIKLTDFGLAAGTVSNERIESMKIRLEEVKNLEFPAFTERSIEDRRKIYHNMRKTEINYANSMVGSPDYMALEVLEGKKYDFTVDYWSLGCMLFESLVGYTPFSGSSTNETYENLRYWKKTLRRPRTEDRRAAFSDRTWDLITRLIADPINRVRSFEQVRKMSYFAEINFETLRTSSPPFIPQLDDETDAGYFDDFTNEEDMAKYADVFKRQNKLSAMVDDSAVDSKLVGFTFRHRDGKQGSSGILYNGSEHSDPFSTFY
# B2: DBF2 kinase activator protein MOB1 (Saccharomyces cerevisiae), P40484 (parent)
# chain: B1 chain
# partner: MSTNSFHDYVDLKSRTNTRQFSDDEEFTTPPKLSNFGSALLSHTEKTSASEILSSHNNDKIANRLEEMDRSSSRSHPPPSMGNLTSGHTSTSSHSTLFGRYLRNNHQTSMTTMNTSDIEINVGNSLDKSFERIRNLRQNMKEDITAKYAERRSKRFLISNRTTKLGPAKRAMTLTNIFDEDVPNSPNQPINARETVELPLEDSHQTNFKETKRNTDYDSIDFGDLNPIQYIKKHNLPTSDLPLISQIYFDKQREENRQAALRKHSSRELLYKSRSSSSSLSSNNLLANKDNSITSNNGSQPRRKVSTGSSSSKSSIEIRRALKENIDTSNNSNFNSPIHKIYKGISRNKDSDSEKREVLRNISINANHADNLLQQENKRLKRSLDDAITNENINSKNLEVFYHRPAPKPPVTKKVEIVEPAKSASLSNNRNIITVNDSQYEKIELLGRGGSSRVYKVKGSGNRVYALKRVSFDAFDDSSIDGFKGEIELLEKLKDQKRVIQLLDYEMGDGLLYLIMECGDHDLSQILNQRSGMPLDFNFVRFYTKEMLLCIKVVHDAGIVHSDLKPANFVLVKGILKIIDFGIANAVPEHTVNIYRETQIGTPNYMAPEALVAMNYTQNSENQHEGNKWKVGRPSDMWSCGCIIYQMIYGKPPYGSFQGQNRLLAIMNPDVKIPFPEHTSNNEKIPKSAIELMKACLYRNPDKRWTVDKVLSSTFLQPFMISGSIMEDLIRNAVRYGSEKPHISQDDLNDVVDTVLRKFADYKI
# B3: DBF2 kinase activator protein MOB1 (Saccharomyces cerevisiae), P40484 (parent)
# chain: B1 chain
# partner: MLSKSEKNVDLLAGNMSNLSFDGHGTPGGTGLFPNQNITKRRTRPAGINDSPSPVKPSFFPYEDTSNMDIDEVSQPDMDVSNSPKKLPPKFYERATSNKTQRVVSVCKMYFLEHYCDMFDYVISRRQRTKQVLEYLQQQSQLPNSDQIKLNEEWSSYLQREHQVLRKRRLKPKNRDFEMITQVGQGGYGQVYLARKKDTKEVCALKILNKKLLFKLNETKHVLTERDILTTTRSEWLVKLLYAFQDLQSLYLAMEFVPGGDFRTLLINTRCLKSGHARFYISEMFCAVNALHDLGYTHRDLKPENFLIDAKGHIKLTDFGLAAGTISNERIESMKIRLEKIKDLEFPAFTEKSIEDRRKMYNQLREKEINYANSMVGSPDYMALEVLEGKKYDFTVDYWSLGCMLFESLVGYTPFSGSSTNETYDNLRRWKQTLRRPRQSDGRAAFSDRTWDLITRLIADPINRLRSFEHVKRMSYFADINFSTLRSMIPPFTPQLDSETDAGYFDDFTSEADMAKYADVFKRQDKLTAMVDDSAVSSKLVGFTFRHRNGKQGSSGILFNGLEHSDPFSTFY
# Variants of: B1
# Details: with dbf20_yeast DBF20, P32328
row,effect of a mutation on the interaction,Variant
1,disrupting interaction strength,E151K
2,disrupting interaction strength,T85P;Q167R;T183H
3,disrupting interaction strength,L157P;A158I

# Variants of: B2
# Details: with mps1_yeast MPS1, P54199
row,effect of a mutation on the interaction,Variant
1,with no effect,L157P;A158I
2,with no effect,E151K
3,decreasing interaction strength,T85P;Q167R;T183H

# Variants of: B3
# Details: with dbf2_yeast DBF2, P22204
row,effect of a mutation on the interaction,Variant
1,decreasing interaction strength,T85P;Q167R;T183H
2,disrupting interaction strength,L157P;A158I
3,disrupting interaction strength,E151K
